Experiment: label from the status in PepcDB records
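Also: failed if final PepcDB status was selected cloned or expressed and not failed if soluble or beyond.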

Sequence	protein production
MSEEIVLKAGGKIYQGWTKIGITRSLEAMSGAFDLEMTYKFLGNDAQYKAFIEPIKQGQACTVDIGGERVITGYVDDWVPSYDESTITISVSGRDKTADLVDCSIDYPSGQFNNQTLTQIADIVCKPFGIKVIVNTDVGEPFQRIQIEQGETPHELLARLAKQRGVLLTSDTFGNLVITRASKTKAGVSLILGDNVKAARGRFSWRQRFSKFTIKAAGAAHGQWDSAGLPTVGGIKADVTDSEIGRYRPLIIVNEEVTTAEGAAKRGQWERQRSIGKSNMAEYTVTGWRIPQTGKLWNINTLVPVIDEIMGLDEEMLIASILFSEDDAGRLAVISVVRPDAMDIPAQIVKDTKLGGSTW	not failed
MKNIVPPADIILNMLNEKPGADLDLLDFYKGYIRRASIEPSYSEEGFDKGKHINEDLRQEIEIAFLKGLVSLRHNICKKGSTVLIIVPSKSWFDLEHHHHHH	failed
MSPPPAPNPIRDSLIARADALREGGAPAEARDLYRLVLDRHPGHGPALAGLGRILLGLGQPTAALESLGAAVAADPTRLDWLADLAVALAGARRPAEALSAAEGLPATAGALGFRADRLEELGRRDQAIALLDDALRRHPDEAELHRRQGVLLRRAGRAAQAIAPWRALVALRPGDAAAWSSLGAGLGESGLDEEAEKALRRAVALAADEPDWTYNLAHFLIERDRLEDALPLLDAAVARAPERAHYHTNLGVCRLGLGDIKGAIAAHRQALALDPDEPEARYDLAWALLLAGAWEEGWAAHEARWRMGRFTGRRAAGPAPTDWPMPLWDGQPLGPGRTLLLHAEQGFGDSLMMSRLIIPALARAGDAQGIIECPPSLVGLLAQSLGPALGPAVRVVAQAESPPAADAHLPLMSLPHRLGVDSETIPGPDRWLRAEPAPRPPSSPPRVGLVWAGDPGNRMDRLRSCPATALRPLFDRVKDAGLDIAWTGLQLGPPAADLPDLPAALAPGGDFAATARVVAALDLVIGVDTAVIHLAGGLGVETWVMLAYVPDYRWMMDRDDSPWYPSARLFRQSRRGDWRGVIAQVAAALTKRFG	failed
MPHLTKAVHDYRLAAMHRLMDRLRVDALVFGSPDFFQYATNFQLDVWPWERPVFVVVPRNGETFAVMNELSTNHMRFATEKGTVWLSDVTYYAEHPRVANRLALPSQLPEVVAALLAAKGLGMSRIAVDVQHPILTGAQRYLPEMTLRPAMAEMRSLRWVKHAEELQIMRDLAALTDWVQDRYRENIRPGRLVQELDHAMAALMVEEAARRFAGEDFEIMKCWTLTGAASASPHGDGAACGSRIAKGDTIVNLVLPRLNGLYVENERTWFCGQPSDEQARFYSVAARATDAAVAAAVVGRRVCDMDAAAQAVIESAGCGDYVFHRTGHAVGLMLHEYPEDMAFNTRPLLAGEVYSSEPGLYVYGLGGFRLDDTVVVGEVPEVIVKTPKTLSYATVSL	failed
MKVYLESFGCSASQASAEIMKASIGKLGHELLSPENAGQAEVYICNSCTVKYTTEQKILYKIRSMGEKGVQVIVSGCMPEVQLEDILHANPEAHILGVNAVSRLGDLLSTIEQRKKTGIPGGERLEIRTSEPQGFLNVPRERSNPNIHICQISQGCNFACSYCIVKHARGKLLSFPPEEIIEDIRSAVADGCREIWLTSQDDSQYGMDTGVKLPELLRAISEIPGDFKVRVGMMNPFSVLPILDDLVDAFDSDKIFKLLHLPIQSASHSVLKKMNRLHKMDSVDEIITKFRAHFEDLSLFTDIIVGFCDETDEDFEETIEWVKKYRPEKINISRYSPRPHTKAFSFRNLDSRISVKRSHQLHKVCEQIKIESKNEMIGWKGRVFVSKYTEIGDVLTRTDSYRPVVISGSDLRPGEYAEVKITGAKPGYFLGKLVSLEHHHHHH	not failed
MFLLQQLDHTVKKMKSQLANFFTIINLSCGVFAILFTLQGELRVSLLFITIAAVFDRLDGAAARKFDCASDFGKQLDSLTDIISFGVAPALMIYHAILFDFGYAGALFTVFYIACGAIRLARFNITENHNSFIGLPITAAGCILTLLYLAVGYWPDYTFMFAILILSFLMVSTIRVRKM	failed
MNVPDMILYNGKITTLDPSQPEVSAIAITDGLITAVGGDELLNSATEKTKKIDLKRKRAIPGLEHHHHHH	not failed
AIAAEAVLRVARRQLSQRGGSGAPILLRQMFEPVSCTFTYLLGDRESREAVLIDPVLETAPRDAQLIKELGLRLLYAVNTHCHADHITGSGLLRSLLPGCQSVISRLSGAQADLHIEDGDSIRFGRFALETRASPGHTPGCVTFVLNDHSMAFTGDALLIRGCGRTDFQQGCAKTLYHSVHEKIFTLPGDCLIYPAHDYHGFTVSTVEEERTLNPRLTLSCEEFVKIMGNLNLPKPQQIDFAVPANMRCGVQTPTA	failed
ADGILGVDKLGHFIFANESATKITGYSEEQILSSDLISLFAGDNKENLTFEDTEVYKAIQSKEVIRISNEYVLMSGARELPLEYSISPVEDDE	failed
MTPIQDHPLRFALANELHARPFPISRAPCTVAYLAVKQPDAAVGRDRKADRAHLIDLLDRHGAPHPQPGATHYAGQIGRHWLKWESHTEFVTYTAFATGVSDRPFNPADFEVFPPDWLAAAPGQRVTSALLRVEEQLPEADIVAALADWFVPESLAVAHVLDRAAVAAGDFRIDPAGHMRFAVFVAPDTGERRIGRIIQRLCEIETYKAMSMLGFARVKALGPKLGELDSGLTGLMVKMTDGGHPAEDLLPQLLSTSAELETMAARSEFRLGATGAYEAIVNQRIASLREERFGGRQTFADFMLRRYEPAMRTVKSTERRLKRLSDRAIRAGDLLRTRVDVERSAQNQALLESMDRRADLALRLQHTVEGLSVVAVSYYAVSLVSAFLLPLSEWYGVDKKALIALVTLPVVGLVWLGIRRIRKKLH	failed
MLIDIALATYNGEKYIQEMLNSISNQTYQDFMIHLRDDGSTDNTLTLCENHKLYEQGKLKIYKDNIKGLGASKNFLKILGHCNSEYIFLCDQDDFWMKDKIQKMLDHIQKHEYKNNIKVPTLVFSDLQIVDRSLNIIADSFYRNSIKSSMCSSPFDFLLSNHIPGCAMVVNKSLLESIQPLPENFRMHDWWLAFVASFYGKIAYLDEPLIKYRQHGGNTVGVPGMNINILRQIKSILNFRDLLDKGLLHKKKMEIYIDKTCSNKILSYESNRFYDFLKGNMPFLEKNKIFKQIKFGEPLILSYLVWLFL	failed
MNRVFKKNSVFAIIFAACSWGGFLDRAYAEACPSEDFSKFLTVFSATPEVQQRFTAVKVQALVLKPAKQTDRFEPQTTDVANASLAYPLMGPIISDKTDGVQIEAVDDRHVRVIDKRAGHSDIKVFNFSRQTCWVLAGMEDWSISEKDLSAAVQPKMNRSESLCFQRGRAYAGLGGVEQYPLTAEFFEAALENYVCAAASGDPQASLNAASLSLSGMAPQLETEKVEALFKAASTTLADGAAGLSSFYCYGNNVAADGPCQHPEQAEKELVRAVSMGSSDATNYLGYTLETGELRTTDLDRAIACYRLAASMGNQTAADNLKRLSKQATDVSTAGHCY	failed
MKSGVIPSSAVGQKINEWYRYIRTFSVPDAEVLKAEIQQELKHMQHDSNLLLYYSLMEFRHQLMLDYLEPLEKLNIEDQPSLSELSRNIDSNQADLKGLLDYYVNFFRGMYEFDKREFISAITYYKQAEKKLSFVADHIERAEFYFKIAEAYYYMKQTYFSLINIKNAYEIYVEQETYNVRIIQCHFVFGVNLMDERNFEQAARHFKLALNMAQAEQKAQLVGRAYYNLGLCYYNQDLLDPAIDYFEKAVSTFESSRIVNSLPQAYFLITLIYYKQGKHDKASEYHKRGYEYAKETDDADYAVKFEFLQSLYLDQPNEEGIERCFQYLKNKNMYADIEDLALEVAKYYYEQKWFKLSASYFLQVEEARKQIQRSEGLYEIEI	failed
MERISLSFVGDVMLAGSATDTLQRYGYSYPFSATAAELRRSDLVVGNLEAPLTDGGREFRAKRFRFKASPVAAAALKRAGFSVMTLANNHMMDFGADGLSDTIHHLNRNGIAFAGAGPSIADARREASVTVRGQTVAFLAYSLTQPIEFFATEGRPGTAPGYAGHYLADIRRVRSSADHVVVSFHWGQERAALPSPYQIETAHRAIDAGADIVIGHHPHVLQGIEIYRGSPIFYSLGNFAFGSRSPSADRSIIARVTLGEGPPIVEVIPLNVLFREVRFQPAILTGRKAADVVDRLNRLSAPFSTVITSTAGSHLVAPAEANARLARRQLEHHHHHH	failed
